Measurements as given in the supplement of paper PMC9112550, “Optimization of the antimicrobial peptide Bac7 by deep mutational scanning” (BMC Biology, 2022).

system: Escherichia coli TOP10; test: shrunken log2 fold change of peptide-encoding DNA abundance (4.5 h post-induction vs induction); higher = less antimicrobial activity (less host growth inhibition); conditions: time post-induction: 4.5 h; library: site-saturation at positions 5, 18, 19, 20
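Note: peptides expressed intracellularly from a pBAD plasmid library in pooled LB shake-flask culture, induced with 0.3% L-arabinose, DNA abundance read by NGS, three biological replicates, DESeq2 with apeglm shrinkage.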

| Sequence | shrunken log2 fold change |
| --- | --- |
| RRIRHRPPRLPRPRPRPNCHPRP | -0.444 |
| RRIRVRPPRLPRPRPRPIPQPRP | 0.485 |
| RRIRMRPPRLPRPRPRPTSSPRP | 0.148 |
| RRIRHRPPRLPRPRPRPQVTPRP | -0.0667 |
| RRIRKRPPRLPRPRPRPKAMPRP | -0.0457 |
| RRIRQRPPRLPRPRPRPQPEPRP | -0.0839 |
| RRIRMRPPRLPRPRPRPEAMPRP | 0.204 |
| RRIRVRPPRLPRPRPRPSYTPRP | -0.27 |
| RRIRVRPPRLPRPRPRPTVWPRP | 0.408 |
| RRIRRRPPRLPRPRPRPGEPPRP | 0.41 |
| RRIRTRPPRLPRPRPRPTSPPRP | 0.119 |
| RRIRCRPPRLPRPRPRPHMAPRP | -0.374 |
| RRIRQRPPRLPRPRPRPCNAPRP | 0.0357 |
| RRIRIRPPRLPRPRPRPVKPPRP | 0.0254 |
| RRIRRRPPRLPRPRPRPPRWPRP | 0.986 |
| RRIRWRPPRLPRPRPRPVHMPRP | -0.0785 |
| RRIRKRPPRLPRPRPRPVPYPRP | -0.0558 |
| RRIRERPPRLPRPRPRPSPRPRP | 0.265 |
| RRIRSRPPRLPRPRPRPWFCPRP | -0.439 |
| RRIRFRPPRLPRPRPRPMGDPRP | -0.0467 |
| RRIRRRPPRLPRPRPRPPIAPRP | 0.385 |
| RRIRRRPPRLPRPRPRPEIVPRP | 0.246 |

| Sequence | shrunken log2 fold change |
| --- | --- |
| RRIRQRPPRLPRPRPRPTQWPRP | 0.571 |
| RRIRIRPPRLPRPRPRPLHVPRP | -0.135 |
| RRIRSRPPRLPRPRPRPVQCPRP | -0.102 |
| RRIRARPPRLPRPRPRPQWAPRP | 0.156 |
| RRIRLRPPRLPRPRPRPWFCPRP | -0.195 |
| RRIRVRPPRLPRPRPRPMRFPRP | 0.48 |
| RRIRCRPPRLPRPRPRPPTIPRP | -0.158 |
| RRIRDRPPRLPRPRPRPRGGPRP | 0.726 |
| RRIRRRPPRLPRPRPRPQREPRP | 0.153 |
| RRIRGRPPRLPRPRPRPTMQPRP | 0.907 |
| RRIRFRPPRLPRPRPRPKKWPRP | 0.187 |
| RRIRTRPPRLPRPRPRPMLQPRP | 0.00738 |
| RRIRQRPPRLPRPRPRPYQDPRP | 0.00682 |
| RRIRLRPPRLPRPRPRPYKSPRP | 0.0344 |
| RRIRRRPPRLPRPRPRPTACPRP | 0.636 |
| RRIRVRPPRLPRPRPRPRYRPRP | -0.0212 |
| RRIRMRPPRLPRPRPRPMPAPRP | 1.07 |
| RRIRYRPPRLPRPRPRPPEAPRP | 0.0456 |
| RRIRFRPPRLPRPRPRPRIFPRP | -0.102 |
| RRIRQRPPRLPRPRPRPSEKPRP | -0.018 |
| RRIRERPPRLPRPRPRPPSWPRP | -0.2 |
| RRIRARPPRLPRPRPRPVELPRP | 0.0828 |

| Sequence | shrunken log2 fold change |
| --- | --- |
| RRIRPRPPRLPRPRPRPADGPRP | 0.297 |
| RRIRRRPPRLPRPRPRPMHFPRP | 0.0461 |
| RRIRIRPPRLPRPRPRPCDTPRP | -0.387 |
| RRIRRRPPRLPRPRPRPSDNPRP | -0.134 |
| RRIRSRPPRLPRPRPRPAFPPRP | 0.278 |
| RRIRRRPPRLPRPRPRPDDEPRP | 0.0458 |
| RRIRCRPPRLPRPRPRPRKIPRP | 0.245 |
| RRIRRRPPRLPRPRPRPQRGPRP | 0.399 |
| RRIRNRPPRLPRPRPRPQWWPRP | 0.034 |
| RRIRPRPPRLPRPRPRPSEQPRP | -0.233 |
| RRIRLRPPRLPRPRPRPVEAPRP | 0.224 |
| RRIRRRPPRLPRPRPRPEYWPRP | 0.0322 |
| RRIRYRPPRLPRPRPRPCENPRP | -0.215 |
| RRIRGRPPRLPRPRPRPWTFPRP | -0.00633 |
| RRIRWRPPRLPRPRPRPAAYPRP | 0.346 |
| RRIRERPPRLPRPRPRPAWRPRP | 0.532 |
| RRIRIRPPRLPRPRPRPMYYPRP | -0.32 |
| RRIRGRPPRLPRPRPRPTTIPRP | 0.623 |
| RRIRTRPPRLPRPRPRPTHDPRP | 0.139 |
| RRIRKRPPRLPRPRPRPHMAPRP | -0.448 |
| RRIRWRPPRLPRPRPRPMCDPRP | 0.116 |
| RRIRIRPPRLPRPRPRPMWLPRP | -0.233 |

| Sequence | shrunken log2 fold change |
| --- | --- |
| RRIRHRPPRLPRPRPRPWRWPRP | 0.16 |
| RRIRKRPPRLPRPRPRPPGIPRP | 0.279 |
| RRIRCRPPRLPRPRPRPMAPPRP | 0.219 |
| RRIRWRPPRLPRPRPRPEWPPRP | 0.956 |
| RRIRQRPPRLPRPRPRPGASPRP | 0.326 |
| RRIRVRPPRLPRPRPRPQMFPRP | -0.0716 |
| RRIRCRPPRLPRPRPRPLKSPRP | -0.154 |
| RRIRVRPPRLPRPRPRPYFEPRP | -0.26 |
| RRIRHRPPRLPRPRPRPLVLPRP | -0.0931 |
| RRIRERPPRLPRPRPRPRTAPRP | 0.131 |
| RRIRPRPPRLPRPRPRPHWMPRP | 0.0365 |
| RRIRVRPPRLPRPRPRPQFFPRP | -0.0611 |
| RRIRHRPPRLPRPRPRPTCPPRP | 0.0464 |
| RRIRIRPPRLPRPRPRPFIAPRP | -0.719 |
| RRIRSRPPRLPRPRPRPWLQPRP | -0.0695 |
| RRIRCRPPRLPRPRPRPQRYPRP | -0.105 |
| RRIRARPPRLPRPRPRPACCPRP | 0.658 |
| RRIRQRPPRLPRPRPRPERSPRP | 0.0688 |
| RRIRIRPPRLPRPRPRPIYFPRP | -0.233 |
| RRIRLRPPRLPRPRPRPIEGPRP | 0.0046 |
| RRIRERPPRLPRPRPRPYHSPRP | -0.133 |
| RRIRWRPPRLPRPRPRPRHTPRP | -0.0876 |

| Sequence | shrunken log2 fold change |
| --- | --- |
| RRIRWRPPRLPRPRPRPCSYPRP | -0.0533 |
| RRIRQRPPRLPRPRPRPNTCPRP | -1.35 |
| RRIRSRPPRLPRPRPRPKCIPRP | -0.256 |
| RRIRDRPPRLPRPRPRPEGLPRP | 0.0425 |
| RRIRPRPPRLPRPRPRPHKQPRP | -0.022 |
| RRIRLRPPRLPRPRPRPPHYPRP | 0.0636 |
| RRIRIRPPRLPRPRPRPLFIPRP | -0.525 |
| RRIRPRPPRLPRPRPRPHKSPRP | -0.283 |
| RRIRRRPPRLPRPRPRPAYKPRP | 0.0139 |
| RRIRHRPPRLPRPRPRPYCDPRP | -0.313 |
| RRIRFRPPRLPRPRPRPLHCPRP | 0.0254 |
| RRIRDRPPRLPRPRPRPKRGPRP | 0.0777 |
| RRIRARPPRLPRPRPRPYDRPRP | -0.01 |
| RRIRSRPPRLPRPRPRPPFPPRP | 0.256 |
| RRIRPRPPRLPRPRPRPCAEPRP | 0.27 |
| RRIRTRPPRLPRPRPRPRGHPRP | 0.182 |
| RRIRVRPPRLPRPRPRPKFRPRP | 0.0323 |
| RRIRSRPPRLPRPRPRPYMPPRP | -1.04 |
| RRIRERPPRLPRPRPRPSAMPRP | -0.279 |
| RRIRNRPPRLPRPRPRPPDFPRP | 0.272 |
| RRIRRRPPRLPRPRPRPDQKPRP | -0.0181 |
